Consider 1 molecule from publication PMC6640692, “Canine CD117-Specific Antibodies with Diverse Binding Properties Isolated from a Phage Display Library Using Cell-Based Biopanning” (Antibodies, 2019).

This test has as its target T1, recombinant canine CD117-ECD-human-Fc fused protein (canine, UniProt O97799 28-527).
T1 construct: canine CD117 (c-Kit) extracellular domain, amplified by PCR from a GeneArt-synthesized CD117 template (NP_001003181); The forward primer begins at the ATG start codon (MRGARG), so the secretion signal appears to be in the construct; Dimer through disulfide linkage in the hFc domain (non-reducing SDS-PAGE); also called CD117-hFc; ECD-CD117-hFc; source: CHO-S cells, transient transfection, purified …
Description: ELISA; competitive ELISA: plate coated with 1 ug/mL canine CD117-hFc; 50 ng/mL canine SCF-His pre-mixed with serially diluted mAbs (from 40 ug/mL) in 2% MPBS, RT 1 h; bound SCF detected with anti-His HRP. The following applies: both partners purified. In general terms: An ELISA detects its analyte on a solid surface through an enzyme-linked reagent.

T1 sequence (O97799 28-527): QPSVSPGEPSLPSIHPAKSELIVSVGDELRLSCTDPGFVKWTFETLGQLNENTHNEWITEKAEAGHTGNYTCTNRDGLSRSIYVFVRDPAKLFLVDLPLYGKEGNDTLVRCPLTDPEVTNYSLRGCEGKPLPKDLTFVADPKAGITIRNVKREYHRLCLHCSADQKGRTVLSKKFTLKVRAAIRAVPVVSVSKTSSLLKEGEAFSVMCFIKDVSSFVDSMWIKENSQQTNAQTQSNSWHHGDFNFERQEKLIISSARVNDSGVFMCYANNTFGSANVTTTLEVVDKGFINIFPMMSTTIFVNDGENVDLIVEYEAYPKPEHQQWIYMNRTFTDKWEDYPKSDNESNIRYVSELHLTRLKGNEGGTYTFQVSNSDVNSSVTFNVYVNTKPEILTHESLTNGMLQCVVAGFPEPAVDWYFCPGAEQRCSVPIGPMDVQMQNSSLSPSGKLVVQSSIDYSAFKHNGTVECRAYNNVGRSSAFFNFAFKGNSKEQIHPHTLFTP

B1: recombinant canine stem cell factor (SCF)-His (ligand, UniProt Q06220 26-191, looked up)
chain: KGICGKRVTDDVKDVTKLVANLPKDYKIALKYVPGMDVLPSHCWISVMVEQLSVSLTDLLDKFSNISEGLSNYSIIDKLVKIVDDLVECTEGYSFENVKKAPKSPELRLFTPEEFFRIFNRSIDAFKDLETVASKSSECVVSSTLSPDKDSRVSVTKPFMLPPVAA
notes: signal peptide in the construct; canine SCF, secretion signal and the soluble part of the extracellular domain, NP_001012753.1 residues 1 to 191; also called canine SCF; SCF-His-tag; source: CHO-S cells, transient transfection, purified from supernatant (HisTrap excel IMAC)
Regarding B1, the binding result is “binds”.
